This is an account of results in patent US20200405833A1 (AFFIMED, published 2020).

Assay [1] concerns the target T1, human EGFR on cells (human, UniProt P00533 25-1210).
T1 construct: whole, on cells; also called EGFR+ CHO cells
The assay can be described thus: flow cytometry on A-431 cells, 37°C; mean of 4 experiments. In general terms: Flow cytometry measures light scatter and fluorescence of single cells or particles in a stream.

The target of assay [2] is T1, human EGFR on cells. The assay can be described thus: cell-based or functional assay.
The target in assay [3] is T1, human EGFR on cells. The assay can be described thus: flow cytometry on EGFR-expressing A-431 cells, 37° C.
Another assay addresses T2, Human FcRn (FCGRT/B2M) (human, UniProt P55899 24-297; P61769 21-119, biotin-labelled (site not stated)).
T2 construct: Purchased; also called FcRn (FCGRT/B2M), His-Tag, Biotin-Labeled, (Human) HiP Cat #71283
The assay can be described thus: SPR (Biacore T200), pH 6.0, biotinylated FcRn captured, multi cycle kinetics, 1:1 model. Background: SPR reads the build-up and loss of mass on a sensor chip optically.

The next assay has as its target T3, Mouse FcRn (FCGRT/B2M) (mouse, UniProt Q61559 22-297; P01887 21-119, biotin-labelled (Avi-Tag)).
T3 construct: Purchased; also called murine FcRn; murine FcRn receptor
T3 sequence (looked up): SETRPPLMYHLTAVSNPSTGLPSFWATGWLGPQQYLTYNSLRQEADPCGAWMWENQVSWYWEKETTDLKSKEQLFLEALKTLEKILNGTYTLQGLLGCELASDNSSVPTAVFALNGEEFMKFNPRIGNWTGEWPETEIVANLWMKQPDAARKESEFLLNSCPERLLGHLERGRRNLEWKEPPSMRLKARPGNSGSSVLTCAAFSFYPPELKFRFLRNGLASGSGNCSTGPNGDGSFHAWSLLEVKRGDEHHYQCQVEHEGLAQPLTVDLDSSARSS
T3 sequence (b2m, looked up): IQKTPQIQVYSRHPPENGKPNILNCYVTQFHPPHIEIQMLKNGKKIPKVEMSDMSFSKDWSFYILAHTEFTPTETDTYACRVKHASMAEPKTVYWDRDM
The assay is described as above.

Assay [4] addresses T4, CD16A on primary human NK-cells (human, UniProt P08637 17-254).
T4 construct: whole, on cells; also called FcγRIIIA
The assay can be described thus: flow cytometry on primary human NK-cells, 37°C, without IgG; mean of 2 experiments.
Description: (§1) After the last staining step, the cells were washed again and resuspended in 0.2 mL of FACS buffer containing 2 μg/mL propidium iodide (PI) (Sigma, cat.: P4170) in order to exclude dead cells. The fluorescence of 2-5×10³ living cells was measured using a Millipore Guava EasyCyte flow cytometer (Merck Millipore, Schwalbach, Germany). Mean fluorescence intensities of the cell samples were calculated using Incyte software (Merck Millipore, Schwalbach, Germany). After subtracting the fluorescence intensity values of the cells stained with the secondary and tertiary reagents alone, the values were used for non-linear regression analysis using the GraphPad Prism software (GraphPad Prism version 6.00 for Windows, GraphPad Software, La Jolla Calif. USA). For the calculation of KD, the equation for one-site-binding (hyperbola) was used.
(§2) To assess the impact of physiological concentrations of human IgG on the binding capacity of bispecific EGFR/CD16A antigen-binding proteins, binding assays with several bispecific EGFR/CD16A antigen-binding proteins on primary human NK-cells were performed in presence or absence of 10 mg/mL polyclonal human IgG as exemplarily shown in FIG. 10.

For assay [5], the target named is T4, CD16A on primary human NK-cells. The assay can be described thus: flow cytometry on primary human NK-cells, 37°C, with 10 mg/mL polyclonal human IgG (Gammanorm); mean of 2 experiments.
Description: as §1, §2
The target of assay [6] is T5, Cynomolgus FcRn (FCGRT/B2M) (cynomolgus, UniProt Q8SPV9 24-297; Q8SPW0 21-119, biotin-labelled (Avi-Tag)).
T5 construct: Purchased; also called FcRn (FCGRT/B2M), Avi-Tag, Biotin-Labeled, (Cynomolgus) Acro Cat #FCM-C82W5
The assay can be described thus: SPR (Biacore T200), pH 6.0, biotinylated FcRn captured, multi cycle kinetics, 1:1 model.
Description: (§3) Binding of EGFR/CD16A antigen-binding proteins to FcRn (human, cynomolgus, murine) was measured on a Biacore T200 Instrument at 25° C. using PBS-T buffer pH 6.0 as running buffer and for dilution (1×Gibco PBS, 0.005% Tween20, titrated to pH 6.0 using 4 M HCl). For this purpose, a Multi Cycle Kinetic experiments was performed using Biotin CAPture Kit (GE Healthcare). For activation of the sensor surface, Biotin CAPture reagent (GE Healthcare) was injected to Flow Cells Fc 1-4 (100 sec, 5 μL/min) resulting in a response of 2100 RU-2800 RU. Biotinylated FcRn of different species were injected to Flow Cell Fc 2 (5 μL/min) resulting in a response of about 8-15 RU. A dilution series of EGFR/CD16A antigen-binding proteins was in (pH 7.4) as running buffer and for dilution. […] Chip was regenerated using Regeneration solution (GE Healthcare) (10 μL/min, Flow cells 1-4, 120 sec). Sensorgrams are referenced by subtraction of zero concentration cycle and subtraction of signals in reference channel Fc 1 (Fc 2-1, Fc 3-1, Fc 4-1). […] Chip was regenerated using Regeneration solution (GE Healthcare) (10 μL/min, Flow cells 1-4, 120 sec). […] Binding kinetics were evaluated by fitting data to 1:1 Binding Model (Rmax and RI locally fitted) using Biacore T200 Evaluation Software.

Assay [7] addresses T4, CD16A on primary human NK-cells. The assay can be described thus: flow cytometry on primary human NK-cells, 37° C., without gammanorm.
Description: as §1, §2
Another assay has as its target T6, huCD16A^RV-His (human).
T6 construct: soluble, His-tagged; also called CD16-His antigen
The assay can be described thus: ELISA, coated EGFR/CD16A Bi-scFv-Fc, soluble huCD16A^RV-His titrated (the concentration axis is that of the antigen), Penta-HIS-HRP per paragraph 126. (In general: ELISA stands for enzyme-linked immunosorbent assay.)

Assay [8] concerns the target T1, human EGFR on cells. The assay can be described thus: cell-based or functional assay. This is another data set of the same source.
The next assay concerns the target T7, EGFR-mFc.
T7 construct: Coated at 2.5 µg/mL in ELISA; also called monomeric EGFR-mFc; EGFR-mFc antigen
The assay can be described thus: ELISA, coated EGFR-mFc antigen, Bi-scFv-Fc titrated, bound construct detected with biotinylated CD16-Fc and streptavidin-HRP.

For assay [9], the target named is T1, human EGFR on cells. The assay can be described thus: cell-based or functional assay. The source holds these as a separate data set.
The target in the next assay is T8, CD16A-antigen (ELISA).
T8 construct: also called CD16A-Fc
The assay can be described thus: ELISA, coated CD16A-Fc antigen, aTriFlex titrated (His-tagged analyte, Penta-HIS-HRP per paragraph 126).

The target in assay [10] is T4, CD16A on primary human NK-cells. The assay can be described thus: flow cytometry on primary human NK-cells, 37°C, with 10 mg/mL polyclonal human IgG (Gammanorm); with 10 mg/mL polyclonal human IgG (Gammanorm).
A further assay concerns the target T9, EGFR-antigen (ELISA).
T9 construct: also called EGFR-Fc
The assay can be described thus: ELISA, coated EGFR-Fc antigen, aTriFlex titrated (His-tagged analyte, Penta-HIS-HRP per paragraph 126).

T5 sequence (Q8SPV9 24-297 limits assumed, chain 1 of 2): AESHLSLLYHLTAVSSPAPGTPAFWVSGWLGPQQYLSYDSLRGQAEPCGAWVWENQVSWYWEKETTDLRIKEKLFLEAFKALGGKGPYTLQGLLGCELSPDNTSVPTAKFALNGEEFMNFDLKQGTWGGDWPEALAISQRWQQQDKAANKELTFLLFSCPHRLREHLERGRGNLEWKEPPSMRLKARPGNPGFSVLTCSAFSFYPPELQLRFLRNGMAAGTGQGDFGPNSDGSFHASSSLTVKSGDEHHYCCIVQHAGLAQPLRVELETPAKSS
T5 sequence (Q8SPW0 21-119 limits assumed, chain 2 of 2): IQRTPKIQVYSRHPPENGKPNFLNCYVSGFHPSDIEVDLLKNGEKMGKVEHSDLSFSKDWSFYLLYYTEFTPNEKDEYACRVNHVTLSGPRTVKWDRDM
T2 sequence (P55899 24-297 limits assumed, chain 1 of 2): as the sequence (Q8SPV9 24-297 limits assumed, chain 1 of 2) above, with D39N, Q44E, S99G, G189S, N190S, M217L, T269S counted along it
T2 sequence (P61769 21-119 limits assumed, chain 2 of 2): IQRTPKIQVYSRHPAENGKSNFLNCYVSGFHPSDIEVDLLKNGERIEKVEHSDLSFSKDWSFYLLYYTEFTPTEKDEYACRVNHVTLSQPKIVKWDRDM
Description for CD16A-antigen (ELISA): (§4) 96-well ELISA plates (Immuno MaxiSorp; Nunc) were coated overnight at 4° C. with recombinant antigen or antibodies in 100 mM Carbonate-bicarbonate buffer. […] After a blocking step with 3% (w/v) skim milk powder (Merck) dissolved in PBS, serial dilutions of the different antibodies or soluble antigens in PBS containing 0.3% (w/v) skim milk powder were incubated on the plates for 1.5 h at room temperature. After washing three times with 300 μL per well of PBS containing 0.1% (v/v) Tween 20, plates were incubated with detection antibodies for 1 h at room temperature. For the detection of His-tagged analytes, Penta-HIS-HRP (Qiagen) was used at 1:3000 dilution. […] After washing three times with 300 μL per well of PBS containing 0.1% (v/v) Tween 20, plates were incubated with Tetramethylbenzidine (TMB) substrate (Seramun) until colour development was clearly visible. The reaction was stopped through the addition of 100 μL per well of 0.5 M H₂SO₄. The absorbance was measured at 450 nm using a multilabel plate reader (Victor, Perkin Elmer).
Description for EGFR-antigen (ELISA): as §4
Description for EGFR-mFc: as §4
Description for Human FcRn (FCGRT/B2M): as §3
Description for Mouse FcRn (FCGRT/B2M): as §3
Description for huCD16A^RV-His: as §4

B1: scFv-IgAb_01 (bispecific antibody)
chain 1: QVQLQESGPGLVKPSETLSLTCTVSGGSVSSGSYYWSWIRQPPGKGLEWIGYIYYSGSTNYNPSLKSRVTISVDTSKNQFSLKLSSVTAADTAVYYCARNPISIPAFDIWGQGTMVTVSSASTKGPSVFPLAPSSKSTSGGTAALGCLVKDYFPEPVTVSWNSGALTSGVHTFPAVLQSSGLYSLSSVVVPSSSLGTQTYICNVNHKPSNTKVDKKVEPKSCDKTHTCPPCPAPEFEGGPSVFLFPPKPKDTLMISRTPEVTCVVVAVSHEDPEVKFNWYVDGVEVHNAKTKPREEQYNSTYRVVSVLTVLHQDWLNGKEYKCKVSNKALPAPIEKTISKAKGQPREPQVYTLPPSREEMTKNQVSLTCLVKGFYPSDIAVEWESNGQPENNYKTTPPVLDSDGSFFLYSKLTVDKSRWQQGNVFSCSVMHEALHNHYTQKSLSLSPGGGGGSGGGGSSYVLTQPSSVSVAPGQTATISCGGHNIGSKNVHWYQQRPGQSPVLVIYQDNKRPSGIPERFSGSNSGNTATLTISGTQAMDEADYYCQVWDNYSVLFGGGTKLTVLGGSGGSGGSGGSGGSGGSGGSQVQLVQSGAEVKKPGESLKVSCKASGYTFTSYYMHWVRQAPGQGLEWMGIINPSGGSTSYAQKFQGRVTMTRDTSTSTVYMELSSLRSEDTAVYYCARGSAYYYDFADYWGQGTLVTVSS
chain 2: QPVLTQPPSVSVAPGKTARITCGGNNIGSKSVHWYQQKPGQAPVLVIYYDSDRPSGIPERFSGSNSGNTATLTISRVEAGDEADYYCQVWDTSSDHVLFGGGTKLTVLGQPKAAPSVTLFPPSSEELQANKATLVCLISDFYPGAVTVAWKADSSPVKAGVETTTPSKQSNNKYAASSYLSLTPEQWKSHRSYSCQVTHEGSTVEKTVAPTECS
With B1, binding with human EGFR on cells [1] was put at a Kd of 2 nM. Also, the “EC50, inhibition of EGF-induced EGFR phosphorylation (phospho-EGFR ELISA, A-431 cells), Exp.2” value with human EGFR on cells [2] was above 100 µg/mL.

B2: Bi-scFv-Fc_02 (bispecific antibody, human IgG1)
chain: SYVLTQPSSVSVAPGQTATISCGGHNIGSKNVHWYQQRPGQSPVLVIYQDNKRPSGIPERFSGSNSGNTATLTISGTQAMDEADYYCQVWDNYSVLFGGGTKLTVLGGSGGSGGSGGSGGSGGSGGSQVQLVQSGAEVKKPGESLKVSCKASGYTFTSYYMHWVRQAPGQGLEWMGIINPSGGSTSYAQKFQGRVTMTRDTSTSTVYMELSSLRSEDTAVYYCARGSAYYYDFADYWGQGTLVTVSSEPKSCDKTHTCPPCPAPEFEGGPSVFLFPPKPKDTLMISRTPEVTCVVVAVSHEDPEVKFNWYVDGVEVHNAKTKPREEQYNSTYRVVSVLTVLHQDWLNGKEYKCKVSNKALPAPIEKTISKAKGQPREPQVYTLPPSREEMTKNQVSLTCLVKGFYPSDIAVEWESNGQPENNYKTTPPVLDSDGSFFLYSKLTVDKSRWQQGNVFSCSVMHEALHNHYTQKSLSLSPGGGGGSGGGGSQVQLQESGPGLVKPSETLSLTCTVSGGSVSSGSYYWSWIRQPPGKGLEWIGYIYYSGSTNYNPSLKSRVTISVDTSKNQFSLKLSSVTAADTAVYYCARNPISIPAFDIWGQGTMVTVSSGGSGGSGGSGGSGGSGGSQPVLTQPPSVSVAPGKTARITCGGNNIGSKSVHWYQQKPGQAPVLVIYYDSDRPSGIPERFSGSNSGNTATLTISRVEAGDEADYYCQVWDTSSDHVLFGGGTKLTVL
notes: Homodimer: anti-CD16A scFv-Hinge-CH2-CH3 (silenced)-anti-EGFR scFv; also called EGFR/CD16A Bi-scFv-Fc; Bi-scFv-Fc_2
Take B2: the EC50 (read off the curve) (commonly the concentration needed to bring the measured effect to its halfway point) was around 2 nM with human EGFR on cells [3], around 6 nM in assay [7], around 4 nM in the assay with huCD16A^RV-His and around 0.02 µg/mL in the assay with EGFR-mFc. In addition, the Kd (in general, the concentration at which binding is half-saturated) in the assay with Human FcRn (FCGRT/B2M) was 410 nM; with Mouse FcRn (FCGRT/B2M), 121 nM; in assay [4], 5 nM; in [5] it was 20 nM; in [6] it was 268 nM. In addition, the “EC50 [pM] mean, 4 h calcein-release cytotoxicity, A-431 target cells, human NK-cells E:T 5:1” value with human EGFR on cells [8] is 2.7 pM. For the same molecule, in the assay with human EGFR on cells [9], the “EC50 [pM] mean, 4 h calcein-release cytotoxicity, HCT-116 target cells, human NK-cells E:T 5:1” value was 3.8 pM.

B3: EGFR/CD16A/HSA aTriFlex (other)
chain 1: QVQLQESGPGLVKPSETLSLTCTVSGGSVSSGSYYWSWIRQPPGKGLEWIGYIYYSGSTNYNPSLKSRVTISVDTSKNQFSLKLSSVTAADTAVYYCARNPISIPAFDIWGQGTMVTVSSGGSGGSGGSGGSGGSGGSQPVLTQPPSVSVAPGKTARITCGGNNIGSKSVHWYQQKPGQAPVLVIYYDSDRPSGIPERFSGSNSGNTATLTISRVEAGDEADYYCQVWDTSSDHVLFGGGTKLTVLGGSGGSGGSSYVLTQPSSVSVAPGQTATISCGGHNIGSKNVHWYQQRPGQSPVLVIYQDNKRPSGIPERFSGSNSGNTATLTISGTQAMDEADYYCQVWDNYSVLFGGGTKLTVLGGSGGSGGSSYVLTQPSSVSVAPGQTATISCGGHNIGSKNVHWYQQRPGQSPVLVIYQDNKRPSGIPERFSGSNSGNTATLTISGTQAMDEADYYCQVWDNYSVLFGGGTKLTVLGGSGGSGGSEVQLLESGGGLVQPGGSLRLSCAVSGIDLSNYAINWVRQAPGKGLEWIGIIWASGTTFYATWAKGRFTISRDNSKNTVYLQMNSLRAEDTAVYYCARTVPGYSTAPYFDLWGQGTLVTVSSGGSGGSGGSGGSGGSGGSDIQMTQSPSSVSASVGDRVTITCQSSPSVWSNFLSWYQQKPGKAPKLLIYEASKLTSGVPSRFSGSGSGTDFTLTISSLQPEDFATYYCGGGYSSISDTTFGGGTKVEIK
chain 2: QVQLVQSGAEVKKPGESLKVSCKASGYTFTSYYMHWVRQAPGQGLEWMGIINPSGGSTSYAQKFQGRVTMTRDTSTSTVYMELSSLRSEDTAVYYCARGSAYYYDFADYWGQGTLVTVSSGGSGGSGGSQVQLVQSGAEVKKPGESLKVSCKASGYTFTSYYMHWVRQAPGQGLEWMGIINPSGGSTSYAQKFQGRVTMTRDTSTSTVYMELSSLRSEDTAVYYCARGSAYYYDFADYWGQGTLVTVSS
notes: also called EGFR/CD16A aTriFlex
With B3, the results for the 50% effective concentration (EC50 (read off the curve)) with CD16A-antigen (ELISA) and with EGFR-antigen (ELISA) were around 4 nM and around 7 nM, respectively. Further, the Kd in assay [4] was 50.8 nM; in assay [10], 456 nM. Moreover, the “EC50 [pM] mean, 4 h calcein-release cytotoxicity, A-431 target cells, human NK-cells E:T 5:1” value with human EGFR on cells [8] was 5.1 pM. Besides, the “EC50 [pM] mean, 4 h calcein-release cytotoxicity, HCT-116 target cells, human NK-cells E:T 5:1” value with human EGFR on cells [9] is 17.6 pM.
